These results are taken from publication PMC4027194.

In the series the test system is G5 1297-1412 (RBS1). Description: EMSA.

In the case of FMDV IRES domain 5, the Kd stood at 20 µM.
